# Results as given in patent US20050271651A1, “Inhibition of bright function as a treatment for excessive immunoglobulin production” (Oklahoma Medical Research Foundation, published 2005).
# T1: mouse Bright, native (untagged) wild-type (mouse, UniProt Q62431 1-601)
# T1 construct: range 1-601; Untagged protein, tested in three forms: expressed in CHO cells, in vitro translated, or endogenous in the mouse B cell lines BCg3R-1d and M12g3Ri; Found as a dimer in solution by size exclusion chromatography; also called native Bright; wild-type Bright
# T1 sequence (looked up): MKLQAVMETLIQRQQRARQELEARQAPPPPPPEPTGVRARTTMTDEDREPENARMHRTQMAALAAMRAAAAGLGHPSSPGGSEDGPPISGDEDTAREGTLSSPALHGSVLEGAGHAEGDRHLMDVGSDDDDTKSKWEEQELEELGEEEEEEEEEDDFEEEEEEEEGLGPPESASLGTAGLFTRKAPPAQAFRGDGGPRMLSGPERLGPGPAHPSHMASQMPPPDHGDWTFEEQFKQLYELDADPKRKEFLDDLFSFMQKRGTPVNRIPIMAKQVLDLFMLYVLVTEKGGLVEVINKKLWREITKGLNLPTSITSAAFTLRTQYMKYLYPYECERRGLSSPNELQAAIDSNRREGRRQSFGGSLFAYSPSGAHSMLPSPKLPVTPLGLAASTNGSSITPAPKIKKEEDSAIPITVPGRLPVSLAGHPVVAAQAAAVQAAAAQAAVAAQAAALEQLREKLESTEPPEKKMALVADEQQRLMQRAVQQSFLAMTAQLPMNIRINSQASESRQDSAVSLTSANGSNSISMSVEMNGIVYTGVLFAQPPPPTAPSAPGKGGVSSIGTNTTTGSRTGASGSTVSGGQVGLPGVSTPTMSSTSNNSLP
# T2: Bright (ARID3A/Dril1) (Homo sapiens, UniProt Q99856 SEQ:1-593)
# T2 sequence: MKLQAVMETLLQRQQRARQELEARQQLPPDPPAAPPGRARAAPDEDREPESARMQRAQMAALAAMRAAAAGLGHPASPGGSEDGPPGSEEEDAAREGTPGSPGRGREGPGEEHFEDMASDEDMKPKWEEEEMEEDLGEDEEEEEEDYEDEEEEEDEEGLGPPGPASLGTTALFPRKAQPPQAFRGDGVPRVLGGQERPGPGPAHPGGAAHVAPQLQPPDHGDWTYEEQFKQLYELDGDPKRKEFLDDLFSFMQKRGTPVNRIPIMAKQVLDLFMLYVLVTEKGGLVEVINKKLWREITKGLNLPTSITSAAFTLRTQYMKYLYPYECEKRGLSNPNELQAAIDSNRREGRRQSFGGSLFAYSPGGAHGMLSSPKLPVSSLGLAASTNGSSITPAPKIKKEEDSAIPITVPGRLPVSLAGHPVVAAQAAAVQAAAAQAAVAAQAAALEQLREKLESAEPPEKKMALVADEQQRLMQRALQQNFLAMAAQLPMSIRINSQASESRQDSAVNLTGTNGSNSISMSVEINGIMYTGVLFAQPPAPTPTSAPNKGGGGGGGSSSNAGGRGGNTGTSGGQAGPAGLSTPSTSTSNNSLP
# What was measured:
# [1] = target: T1, mouse Bright, native (untagged) …; assay: co-expression in CHO cells, anti-myc immunoprecipitation, anti-Bright blot
# Procedure: FIGS. 11A-B—Tagged Bright proteins dimerize with native Bright. (FIG. 11A) Nuclear extracts from cells expressing Bright protein were subjected to size exclusion chromatography and protein fractions were analyzed for Bright by western blotting (lower panel). Data are presented graphically relative to molecular weight standards in the upper panel and are representative of four experiments. (FIG. 11B) C-terminal myc-his tagged Bright was either singly or coexpressed in CHO cells with native Bright. […] Immunoprecipitations using anti-myc Ab (middle panel) and anti-Sp1 as an isotype control (bottom panel) were performed with each of the transfected extracts and developed with anti-Bright reagents. Arrows indicate immunoglobulin heavy chain cross-reactive with the secondary reagent. Data are representative of two separate experiments.
# To determine if the mutated proteins formed heterodimers with wild-type Bright, his-myc-tagged mutant forms of Bright were co-expressed in CHO cells with native wild-type Bright. Tagged proteins were distinguished from native Bright by the slight size differences in western blots (FIG. 11B) and were confirmed using anti-tag antibodies (not shown). Anti-myc antibodies were used to immunoprecipitate the tagged proteins and blots were developed with anti-Bright (FIG. 11B). In every case, a lower molecular weight band was detected that reflected the presence of native Bright.
# [2] = target: the molecule itself; assay: size exclusion chromatography (not shown)
# Bright (ARID3A/Dril1) = target: T2, Bright (ARID3A/Dril1); assay: competition; nonspecific competitor, recombinant Bright; conditions: tags: TNT rabbit reticulocyte lysate
# Procedure: Electrophoretic mobility shift assays (EMSAs). Nuclear extracts were prepared by hypotonic lysis, protein concentrations were quantified with Bradford reagents (BioRad, Richmond, Calif.), and EMSAs were performed in 4% nondenaturing acrylamide gels after incubation for 15 min at 37° C. with gamma-³²P-labeled probe, as previously described (Buchanan et al., 1995). The prototypic Bright binding site (a 150 base pair Bam HI-Fok I fragment called bf150) from the S107 V1 5′ flanking sequence (Webb et al., 1991) was used as a probe. In some instances, antibodies were added 5 min before incubation with the probe. […] A double-stranded oligo containing the 45 base pair foot-printed Bright binding site within bf150 described in Webb et al. (1991) was used as a specific competitor in increasing concentrations and a mutated version of that oligonucleotide containing the double-stranded sequence corresponding to 5′-[…]-3′ (SEQ ID NO:6) was used as a non-specific competitor. Underlined nucleotides represent changes from the prototype. Competition assays were performed as previously described (Webb et al., 1991).
# To confirm that the protein complexes that reacted with anti-Bright antibodies in FIG. 2D were specific for the Bright binding site, competition experiments were performed in the presence of double-stranded oligonucleotides spanning the Bright binding motif.
binding result [1],Binder,binding result [2],binding result (Bright (ARID3A/Dril1))
binds,"mouse Bright REKLES mutant (REKLES at amino acids 455-460 changed to AEALEA), C-terminal myc-his tagged (other, UniProt Q62431 1-601, looked up, range 1-601; not shown: C-terminal myc-his tag from vector pcDNA4/TO/myc-His B) MKLQAVMETLIQRQQRARQELEARQAPPPPPPEPTGVRARTTMTDEDREPENARMHRTQMAALAAMRAAAAGLGHPSSPGGSEDGPPISGDEDTAREGTLSSPALHGSVLEGAGHAEGDRHLMDVGSDDDDTKSKWEEQELEELGEEEEEEEEEDDFEEEEEEEEGLGPPESASLGTAGLFTRKAPPAQAFRGDGGPRMLSGPERLGPGPAHPSHMASQMPPPDHGDWTFEEQFKQLYELDADPKRKEFLDDLFSFMQKRGTPVNRIPIMAKQVLDLFMLYVLVTEKGGLVEVINKKLWREITKGLNLPTSITSAAFTLRTQYMKYLYPYECERRGLSSPNELQAAIDSNRREGRRQSFGGSLFAYSPSGAHSMLPSPKLPVTPLGLAASTNGSSITPAPKIKKEEDSAIPITVPGRLPVSLAGHPVVAAQAAAVQAAAAQAAVAAQAAALEQLAEALEATEPPEKKMALVADEQQRLMQRAVQQSFLAMTAQLPMNIRINSQASESRQDSAVSLTSANGSNSISMSVEMNGIVYTGVLFAQPPPPTAPSAPGKGGVSSIGTNTTTGSRTGASGSTVSGGQVGLPGVSTPTMSSTSNNSLP",binds,
,mutated Bright site competitor (dsDNA) DNA 1: TAAGTATAAATATGTACATGAGTACACCCTCCACTTATTTATCTTA DNA 2: TAAGATAAATAAGTGGAGGGTGTACTCATGTACATATTTATACTTA,,no binding
